{"source": "patent US20100298217A1", "about": "(published 2010)", "key": {"[1]": {"target": "T1, mouse CSF-1R C432S/C439S mutant expressed on M-/- macrophages (M-/-.C432/439SCSF-1R cells) (mouse, UniProt P09581 20-977)", "T1 sequence": "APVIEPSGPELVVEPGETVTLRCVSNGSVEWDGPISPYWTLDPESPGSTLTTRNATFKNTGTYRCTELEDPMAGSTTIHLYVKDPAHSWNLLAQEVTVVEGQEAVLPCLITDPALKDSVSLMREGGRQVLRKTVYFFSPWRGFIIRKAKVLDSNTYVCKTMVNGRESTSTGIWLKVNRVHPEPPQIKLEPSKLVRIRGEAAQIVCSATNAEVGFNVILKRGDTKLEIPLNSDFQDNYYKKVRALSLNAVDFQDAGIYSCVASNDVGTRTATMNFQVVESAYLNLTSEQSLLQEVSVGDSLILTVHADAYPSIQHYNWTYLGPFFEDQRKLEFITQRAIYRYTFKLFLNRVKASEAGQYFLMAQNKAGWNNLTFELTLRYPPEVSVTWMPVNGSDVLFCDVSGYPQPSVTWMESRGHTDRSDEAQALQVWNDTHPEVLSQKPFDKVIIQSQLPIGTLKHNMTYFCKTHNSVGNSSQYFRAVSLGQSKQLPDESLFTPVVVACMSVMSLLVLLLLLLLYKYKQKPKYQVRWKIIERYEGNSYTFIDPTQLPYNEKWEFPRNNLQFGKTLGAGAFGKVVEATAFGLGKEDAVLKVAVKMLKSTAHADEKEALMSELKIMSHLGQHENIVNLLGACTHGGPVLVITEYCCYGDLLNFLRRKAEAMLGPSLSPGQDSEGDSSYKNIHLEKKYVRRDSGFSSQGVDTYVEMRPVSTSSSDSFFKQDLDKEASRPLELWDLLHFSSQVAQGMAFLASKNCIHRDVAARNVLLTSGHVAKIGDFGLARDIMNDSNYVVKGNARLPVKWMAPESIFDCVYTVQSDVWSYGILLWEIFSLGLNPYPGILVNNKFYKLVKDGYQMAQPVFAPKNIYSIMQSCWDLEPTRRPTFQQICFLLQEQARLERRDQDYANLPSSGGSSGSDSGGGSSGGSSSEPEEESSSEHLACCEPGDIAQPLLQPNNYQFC", "test": "cell-based or functional assay"}, "[2]": {"target": "T1, mouse CSF-1R C432S/C439S mutant …", "test": "CSF-1 binding to upregulated cells carrying the receptor, FIG. 14"}}, "data": [{"binder": "purified human recombinant CSF-1 (ligand, UniProt P09603 36-253, looked up, also called human CSF-1; colony stimulating factor-1) SEYCSHMIGSGHLQSLQRLIDSQMETSCQITFEFVDQEQLKDPVCYLKKAFLLVQDIMEDTMRFRDNTPNAIAIVQLQELSLRLKSCFTKDYEEHDKACVRTFYETPLQLLEKVKNVFNETKNLLDKDWNIFSKNCNNSFAECSSQDVVTKPDCNCLYPKAIPSSDPASVSPHQPLAPSMAPVAGLTWEDSEGTEGSSLLPGEQPLHTVDPGSAKQRP", "values": [{"measurement": "fold decrease in CSF-1-induced tyrosine phosphorylation and ubiquitination of cells starved of CSF-1 for 24 h", "setting": "[1]", "result": "~5", "unit": "fold"}, {"measurement": "maximum CSF-1 binding relative to WT CSF-1R", "setting": "[2]", "result": "~70", "unit": "%"}]}]}
